This data set in a line: protein stability index of a GFP-peptide fusion (yeast GPS) (PSI 1-4); higher = more stable; sorted into four equal gates, so the index is relative within each strain. An outline of the steps: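 The protein stability index of a peptide was calculated by multiplying its read frequency in each gate by that gate's number and adding the products. The peptides were tiled 17-residue stretches of yeast proteins, fused downstream of GFP on a Cherry-expressing plasmid and carried in yeast as a pooled library. Mid-log cultures in leucine-free medium were sorted into four equal gates by GFP/Cherry ratio, and each gate's plasmids were PCR-amplified and Illumina-sequenced.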

In the supplement of paper PMC9732359 one finds protein stability index data, which are given here for 24 sequences.

± gives the uncertainty stated by the source.

For the sequence HAQLLLSDRITGNFIIP [PRP8], the protein stability index is, setting by setting: (doa10∆) 2.09 ± 0.061; (pdr5∆) 2.52 ± 0.071; (san1∆) 2.37 ± 0.071; (ubr1∆) 2.71 ± 0.043.
For DTKPFLNKDSTNEFVGS [NUT1], in that order: 3.09 ± 0.064, 2.79 ± 0.054, 2.44 ± 0.062 and 3.04 ± 0.039.
For TKANDKNESATINEMMK [FAS2] the same measures were 3.1 ± 0.084, 3.17 ± 0.094, 3.03 ± 0.062 and 3.11 ± 0.057.
For QQKQQQQQQQHQQQQQQ [SNF5] the same measures were 2.73 ± 0.033, 2.8 ± 0.03, 2.81 ± 0.029 and 2.769 ± 0.026.
With KQVLDVDPVYKDVAKPT [FAS2], the protein stability index reads like this: (doa10∆) 2.98 ± 0.065; (pdr5∆) 2.99 ± 0.058; (san1∆) 3.08 ± 0.037; (ubr1∆) 2.86 ± 0.041.
For SPSERIEPLEINIQSFK [BRR2], in that order: 2.51 ± 0.064, 2.53 ± 0.046, 2.55 ± 0.047 and 1.97 ± 0.032.
As for EKQIEELLDNCIETFVA [SRB6], the protein stability index runs as follows: (doa10∆) 2.62 ± 0.13; (san1∆) 3.19 ± 0.16; (ubr1∆) 3.32 ± 0.12.
For QQQQAAALANANNNINS [SWI1], the protein stability index is, setting by setting: (doa10∆) 2.51 ± 0.058; (pdr5∆) 2.3 ± 0.053; (san1∆) 2.46 ± 0.047; (ubr1∆) 2.65 ± 0.06.
For VTNSPLFQTIEKLINNS [ECM29] the same measures were 2.73 ± 0.054, 2.85 ± 0.058, 2.76 ± 0.085 and 2.92 ± 0.066.
Turning to QPTPRSASNTAKSTPNT [GAL11], the protein stability index by setting is: (doa10∆) 2.75 ± 0.061; (pdr5∆) 2.93 ± 0.05; (san1∆) 2.75 ± 0.058; (ubr1∆) 2.55 ± 0.048.
For KVDSPDDPFMTKSGATT [GAL11] the same measures were 2.51 ± 0.077, 2.63 ± 0.071, 2.59 ± 0.055 and 2.79 ± 0.045.
With FLPKLNSVRNSLLLAHF [NUT1], the protein stability index reads like this: (doa10∆) 2.15 ± 0.04; (pdr5∆) 1.5 ± 0.046; (san1∆) 1.65 ± 0.07; (ubr1∆) 1.81 ± 0.029.
Regarding MEKLDAKLNHLKKLEKF [SWI3], the protein stability index was found to be 2.81 ± 0.13 (doa10∆), 2.7 ± 0.1 (pdr5∆) and 3.02 ± 0.12 (san1∆).
As for YLGEGPRMVRDVFRLAR [RPT3], the protein stability index is, setting by setting: (doa10∆) 2.79 ± 0.14; (pdr5∆) 2.96 ± 0.053; (san1∆) 2.8 ± 0.14; (ubr1∆) 2.88 ± 0.09.
For SGTSSDPDTKKVKESPA [YIL149C/MLP2] the same measures were 3.21 ± 0.059, 3.2 ± 0.046, 3.14 ± 0.038 and 3.23 ± 0.061.
For IDFTLLNRLLRLIVDPN [PRP8], in that order: 1.85 ± 0.059, 1.88 ± 0.058, 1.84 ± 0.071 and 1.73 ± 0.051.
For LLISDTESNELIQKLQN [IRR1], in that order: 2.79 ± 0.076, 2.85 ± 0.084, 2.38 ± 0.073 and 2.9 ± 0.084.
ADLERFFLSIYFFYASR [YJL039C/NUP192]: the protein stability index is, setting by setting: (doa10∆) 1.68 ± 0.073; (pdr5∆) 1.12 ± 0.13; (san1∆) 1.22 ± 0.12; (ubr1∆) 1.55 ± 0.072.
EQKLIDQHVINILWAIY [YCS4]: the protein stability index by setting is: (doa10∆) 1.87 ± 0.042; (pdr5∆) 2.28 ± 0.04; (san1∆) 1.93 ± 0.053; (ubr1∆) 1.68 ± 0.035.
For NVETYEQILQWVTEVLG [BRR2], the protein stability index was determined as 1.83 ± 0.065 (doa10∆), 1.75 ± 0.06 (pdr5∆), 1.77 ± 0.089 (san1∆) and 2 ± 0.082 (ubr1∆).
In turn, VPPINCIFNFLQQQTPV [SME1] gave a protein stability index (doa10∆) of 1.34 ± 0.042, a protein stability index (pdr5∆) of 1.58 ± 0.035, a protein stability index (san1∆) of 1.49 ± 0.065 and a protein stability index (ubr1∆) of 1.64 ± 0.042.
Turning to RKNFKMGPLYQNFAEFM [IRR1], the protein stability index reads like this: (doa10∆) 1.33 ± 0.037; (pdr5∆) 1.54 ± 0.06; (san1∆) 1.72 ± 0.078; (ubr1∆) 1.67 ± 0.038.
For MAFRKSNVYLSLVNSYI [COB], in that order: 2 ± 0.049, 2.08 ± 0.078, 1.96 ± 0.079 and 2.36 ± 0.064.
For GNDFKFNYQGDELVLNF [REC8] the same measures were 3.34 ± 0.078, 3.42 ± 0.083, 3.34 ± 0.053 and 3.17 ± 0.047.
